Experimental data published in the DeepSol protein solubility set.

Assay: soluble on expression in E. coli; label from the status in PepcDB or PDB records

| Sequence | soluble on expression in E. coli |
| --- | --- |
| DDGSNEDTKQALSALSEQGLIKLISLSENQGKGGAVMAGLHQAHQLGFTHTIQIDADGQHDLEALPKLLSASETKPDNLISGQPIYDESVPKARLYGRYATHIWVWIETLSLSIKDSMCGFRAYPVAKTVAVLNKYNIGKRMDFDIEILVRMYWEGVDIDFVPTRVIYPEGGISHFDALWDNVKISWMHTRLFFGMLPRIPSLLARKRRHTDDSNAHWSKRKEQGTILGIKTLLAVYRLFGRKAFDLILKLVMRYYHFTGKSAREASEIYLQNLQRYAAQQNIALPKQLDSYHHLLSFGRTMLDKLAAWQGDFNVDNLTIHGQHHFEEMAQKKQGVLILGSHLGNIELCRALGRRHSHVKINALVFTQHAEQFNAVMKAVNPNSELNLIQVSSMGPDTAILLQQKIEQGEWVVIVGDRTSTSKENRVVWADFLGKPAPFPQGP | not soluble |
| DEETKAFEALLSNIVKPVASDIQARTVVLTWSPPSSLINGETDESSVPELYGYEVLISSTGKDGKYKSVYVGEETNITLNDLKPAMDYHAKVQAEYNSIKGTPSEAEIFTTLSCEPDIPNPPRI | soluble |
| DETIHLERGENLFEIHINKVTFSSEVLQASGDKEPVTFCTYAFYDFELQTTPVVRGLHPEYNFTSQYLVHVNDLFLQYIQKNTITLEVHQAYSTEYETIAACQLKFHEILEKSGRIFCTASLIGTKGDIPNFGTVEYWFRLRV | soluble |
| DGTLVVDIDGCISHANPAAETLLAGPEESLVGQQVEAVIPTWDSLTVDDEQADWSELALSVDGQQRFVELEVTPFADRF | not soluble |
| DGYWYGDYYGVMSFGVNTDLVQEVPKSWEALLDSQYANAFALAGDPRASNQAILAVMSAGIADGTEPGEASGKKGLEFFGKLNKAGGFVPVIGKAGTIAQGQTPIVAAWDYNLLSWRDELKGNPPMEVVIPEGPSLAGVYVQAISAFAPHPNAAKLWMEYLYS | not soluble |
| DHWLRQDLRQMFIEELGSNAREIIQFVVGSHDIGKATPLFQYQKAQKGEVWDSIRYAIDRTGRYQKPLPSSYLVKKTSGGPNRHEQWSSFASKNEYLKPSAAAKENWIGLAIGGHHGRFEPVGYGRHQRKAAEDLAKSGWSAAQQDLLRALEKASGITRASLPSELSPELTLVLSGLTILADRISSTESFVITGARMIDDGTLHLATPIDWLKTRKLDSEKHVAKTVGIYHGWNNHESAIHSILKGYDPRPLQTIALQNQVGLLNLMAPTGNGKTEAAILRHSLKENDRLIFLLPTQATSNAIMRRVQGIYSDTPNVAALAHSLASVEDFYQTPLSVFDDHYDPSKEQFESSMSG | not soluble |
| DIMVVVDAGHGGKDPGAVGSRGEREKDVVLSIAQLLAKRLKREKGFDVRLVRNDDFFVPLRKRVEFAHKSNADMFISVHADAAPRLTASGASVFALSEGGATSATARFMAQRENGADLLGATSLLNLKDKDPMLAGVILDMSMNATIAASLQLGHTILGSLEGITTLHQKRVEQAGFAVLKSPDVPSILVETGFISNSRDSQRLVTARHQQAVADGLFDGLQRYFQRNPPMDSHLAWMQAQKQEQQA | not soluble |
| DIVLTQSPATLSVTPGNSVSLSCRASQSIGNNLHWYQQKSHESPRLLIKYASQSISGIPSRFSGSGSGTDFTLSINSVETEDFGMYFCQQSNSWPYTFGGGTKLEITGGGGSGGGGSGGGGSDIQLQESGPSLVKPSQTLSLTCSVTGDSITSDYWSWIRKFPGNRLEYMGYVSYSGSTYYNPSLKSRISITRDTSKNQYYLDLNSVTTEDTATYYCANWDGDYWGQGTLVTVSAAHHHHHH | soluble |
| DKDVLEVKLDKKEYKAGETATALIQSPYADAELYFAVIKDKPIYQQITKVQGSAPQIQFRVTPEMLPNAAVEAVLVRQGKPINQVEVGSLDNLVKIGFTPFKVNLEDKYLKLQVKPAQASLEPGAEETIQLEVKDNQGNPTKGQLTVMVVNEAVLQLSGY | not soluble |
| DKSRIAHMIDEWDGKEIIYPDDLVFTTMGEDTVKWFLKDSRYTIVTYADSIGCMGCKLKLPVWKDFISYLDSVSDHTVKVIFILHPRDKKEMVHLLEYNDFSYPVCLDIKGSFDKINKIPSNLAFQTFLLDNRNKVIAIGNPIHNPNVRTLYLNLILSDSICKS | not soluble |
| DLVIIVDDERRIVDVNAAATALFDGDQNTLLGRSLPQASPTLAETVPGPGERTQTETALERDGSVRYYDVRVIPLYRAYGVVSGHLISLRD | not soluble |
| DLVPQIIWTGSSDGFIDYYNKRWYEYTGFDGKAFGDKSWVPVMHPDDVQEVLDCWYGSVKKGTPYQIELRMKSAETGEYRWFLSKALPIKDKTGVITKWFGTCTDI | not soluble |
| DMRVVSVNPAARRLLDLPDDYIPIERPLEEVCAKIPFGPDELGEGESRTWRLPTAEVRRITRMRFFDRSFSRLFFSIETLTEELHSAEKEAYEKLIRLIAHEVNNSTAGIIGVLNAVGDAFDDTPHTPEGEVSEAIALCRDRCMAMSRFITRFAEVVKLPDPTLSSVDLVPLCERCILLMQPLAVETGVKMKMCKEQDSCLVRCDAEQIEQVVINLLRNAIESFAQQNDLAVSATKTVLLCLDRHNLLVEDNGQPISDDVATRLFTPFFSTKPNGQGIGLVVIREVLTRHGWSFSLTTDADGRTRFRMAWP | not soluble |
| DMWVYCETQAGDLVDVSKEMLGKARELMNDYNAAYDEDERVVAVLIGAAASDHVEDVIAYGADLVVYHEDDRLDRFRHQPYTEIFCDMARAGGDLAADGREETEWKDYHEPRYTVFPATNNGRDLSALVQGELDSGLASDCSGLYIESAMISNPAKVGTAGDKKEFERVLHMKRPDFSGFEYSTILCIDKPHRDFHPQGASVIPGSFEMPDPDYERDGEVVDYGMDIDDDWFTVEVEEYDRLSGGVD | not soluble |
| DNGLHYSVGFNLSDTRAEITKYDNPTKSLSSPYYEGQIVGDIWGYESSLFQSADEIASAPDQSKLDGGISKVPGDIRFMDIDGNGVVDYGENTVDKPGDMKIIGNNKARYRYGFNISADWKGFDLGIFFQGVGKRDLMLPYTFKWQYGSMWQVSTAVGNDYWREDNAGGWLPVARFNGSQALGQNQTRYLLDASYLRLKSLSFGYTLPVSLTKQWGIQKCRVYFTGENLLTFKHTPEGFDPELDDPYKYPQQKSLALGLNVVF | not soluble |
| DPSVVLQMAEGPATYEQAPAGAPPANDPQARFVAKVLGETEDTWGAIFTQSLNRNYVPPKLVLFRGATPTACGTGQAAMGPFYCPGDSKVYIDLGFFDEMERRLNAPGDFAQAYVIAHEVGHHVQHLLGVSEQVDRLRQRNPAQANALSVRMELQADCFAGLWARRADQARNILESGDIEEGLNAASAIGDDTLQKKSQGYVVPDAFTHGSSAQRVRWFKRGLESGDLRQCDTF | not soluble |
| DRLTEEYGMHVYGIEFDEDRIIELRDRGYRIVAGDVTDPELWRRIELLDIPQLFAMSLPRYTDSDKVLARIHHDYPGATVATITQTRGREQALLTAGADVAVYLYEGVGDELADQAVAHLRQG | not soluble |
| DSLDEQRSRYAQIKQAWDNRQMDVVEQMMPGLKDYPLYPYLEYRQITDDLMNQPAVTVTNFVRANPTLPPARTLQSRFVNELARREDWRGLLAFSPEKPGTTEAQCNYYYAKWNTGQSEEAWQGAKELWLTGKSQPNACDKLFSVWRASGKQDPLAYLERIRLAMKAGNTGLVTVLAGQMPADYQTIASAIISLANNPNTVLTFARTTGATDFTRQMAAVAFASVARQDAENARLMIPSLAQAQQLNEDQIQELRDIVAWRLMGNDVTDEQAKWRDDAIMRSQSTSLIERRVRMALGTGDRRGLNTWLARLPMEAKEKDEWRYWQADLLLERGREAEAKEILHQLMQQRGFYPMVAAQRIGEEYELKIDKAPQNVDSALTQGPEMARVRELMYWNLDNTARSEWANLVKSKSKTEQAQLARYAFNNQWWDLSVQATIAGKLWDHLEERFPLAYNDLFKRYTSGKEIPQSYAMAIARQESAWNPKVKSPVGASGLMQIMPGTATHTVKMFSIPGYSSPGQLLDPETNINIGTSYLQYVYQQFGNNRIFSSAAYNAGPGRVRTWLGNSAGRIDAVAFVESIPFSETRGYVKNVLAYDAYYRYFMGDKPTLMSATEWGRRY | soluble |
| DSLKAEVNTLFARFDEQPLAAASIAQVHTAALFDGREVIVKVTRPNIRTQILQDFEIISWLGQSLESRLEAARALHLSEIIQDYRQIILNELDLTLEADNTRRMRHYFTGSSMMYVPEVY | not soluble |
| DTETTGLPADETQFISGVDAPAPVSVGWQLLDFRFRCIEEVVCRLSTDEPVSPEAAALHGITDASLHGDDPHEVYARLLGAVSKAKVLSAHNLAFHRSVLVYDMRRRGFDPSPLFSLDDYCTMEAGVDFTHLYGSCGTWKLPRLTELFGVLYFGLPGVRTTYREKVRNDIRLVAACLHRMNPTTPSLE | not soluble |
| DTTGSTPAPIDENGTVLALLPEFEHNPNAMFVLWKDHTSVAKADRINELAHSGKFTDYTRYVGGVYSSEWFWAKAAWVSEQDEQVAKRAFSWVELCDWIPAILADTQHPQKLRRGICAAGHKAMWHESWGGLPEQAFLSAISPTLDGIRDRMFTEVFTSDQAAGYLSKAWAIKLGLPEGIAIAIGEFDCHMGAVGAGAGANDLVKVIGTSTCDILMVESQNVGDRTIHGICGQVEGSAMPELLALEAGQSAFGDMYAWFKNVLMWPLQAYAEHNPDFALTAEEIASELLPMLSQAAEQQGIDQYTPVAMDWLNGRRTPYANQRLKGAICDLNLGSSSPAIFSALVESTAHGAKAIVDCFIEQDVTVERVIAIGGIAQKSPYVMQMCADVIGRDIIVVESDQ | not soluble |
| DVGSAIDAAHQAFLRYQQCPLKTRSAIISALRETLAPELATLAEESATETGMGNKEDKYLKNKAALENTPGIEDLTTSALTGDGGMVLFEYSPFGVIGAVAPSTNPTETIINNSISMLAAGNSVYFSPHPGAKKVSLKLIARIEEIAYRCSGIRNLVVTVAEPTFEATQQMMSHPLIAVLAITGGPGIVAMGMKSGKKVIGAGAGNPPCIVDETADLVKAAEDIISG | not soluble |
| DVKLVESGGGLVKPGRSLKLSCAASGFTFSDYYMFWVRQTPEQRLEWVATISDGGAYTYYPDSVKGRFTISRDNAKNNLYLQMNSLKSEDTGMYYCARDPLEYYGMDYWGQGTSVAVSSAKTTAPSVYPLAPVCGDTTGSSVTLGCLVKGYFPEPVTVTWNSGSLSSGVHTFPAVLQSDLYTLSSSVNVTSSTWPSQSITCNVAHPASSTKVDKKIVPR | soluble |
| DVQPETCRPSAASGNYFPQYPEYAIETARLRTFEAWPRNLKQKPHQLAEAGFFYTGVGDRVRCFSCGGGLMDWNDNDEPWEQHALWLSQCRFVKLMKGQLYIDTVAAKPVLAEEKEESTSIGGD | soluble |
| EAMFCDFPKINHGILYDEEKYKPFSQVPTGEVFYYSCEYNFVSPSKSFWTRITCAEEGWSPTPKCLRLCFFPFVENGHSESSGQTHLEGDTVQIICNTGYRLQNNENNISCVERGWSTPPKCRSTISAEKCGPPPPIDNGDITSFLLSVYAPGSSVEYQCQNLYQLEGNNQITCRNGQWSEPPKCLDPCVISQEIMEKYNIKLKWTNQQKLYSRTGDIVEFVCKSGYHPTKSHSFRAMCQNGKLVYPSCEEK | not soluble |
